Data taken from patent US20160272683A1 (Novo Nordisk, published 2016).
Numbered stars: 1 amine (or outer) side, 2 acyl side, 3 side chain; on linkers, the order of the positions; unused ones are H or OH. * marks the point of attachment. C20 diacid = O=C(O)CCCCCCCCCCCCCCCCCCC(=O)*; γGlu = O=C(O)[C@H](CCC(=O)[*:2])N[*:1]

T1: human amylin receptor (human calcitonin receptor + human RAMP3) (human) (UniProt P30988)
T1 sequence (looked up) 1: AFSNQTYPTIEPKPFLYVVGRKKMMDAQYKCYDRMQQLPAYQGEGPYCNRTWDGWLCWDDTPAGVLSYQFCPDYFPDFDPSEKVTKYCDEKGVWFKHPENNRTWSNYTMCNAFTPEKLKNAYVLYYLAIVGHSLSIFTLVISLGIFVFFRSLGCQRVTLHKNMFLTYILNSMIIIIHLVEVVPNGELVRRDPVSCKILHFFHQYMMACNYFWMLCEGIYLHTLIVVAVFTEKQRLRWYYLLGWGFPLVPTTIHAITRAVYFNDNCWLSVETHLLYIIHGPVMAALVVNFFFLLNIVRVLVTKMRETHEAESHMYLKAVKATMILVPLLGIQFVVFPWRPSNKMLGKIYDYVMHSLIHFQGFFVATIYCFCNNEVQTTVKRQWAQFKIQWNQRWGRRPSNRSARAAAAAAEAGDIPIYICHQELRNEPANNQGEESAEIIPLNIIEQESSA
T1 sequence (looked up) 2: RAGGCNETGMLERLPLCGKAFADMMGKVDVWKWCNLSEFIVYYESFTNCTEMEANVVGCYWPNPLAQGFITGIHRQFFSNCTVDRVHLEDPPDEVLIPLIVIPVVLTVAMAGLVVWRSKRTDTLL

B1: [N-terminal(C20 diacid-gGlu), des1, 9V, 15Q, 21Q, 23Y, 30S, 31G, 32T, 33Y]mimylin (peptide)
peptide: {C20 diacid-γGlu}-ASELSTAVLGRLSQELHELQTYPRTETGSGTY-NH2
SMILES: CC(C)C[C@H](NC(=O)[C@H](CCCNC(=N)N)NC(=O)CNC(=O)[C@H](CC(C)C)NC(=O)[C@@H](NC(=O)[C@H](C)NC(=O)[C@@H](NC(=O)[C@H](CO)NC(=O)[C@H](CC(C)C)NC(=O)[C@H](CCC(=O)O)NC(=O)[C@H](CO)NC(=O)[C@H](C)NC(=O)CC[C@H](NC(=O)CCCCCCCCCCCCCCCCCCC(=O)O)C(=O)O)[C@@H](C)O)C(C)C)C(=O)N[C@@H](CO)C(=O)N[C@@H](CCC(N)=O)C(=O)N[C@@H](CCC(=O)O)C(=O)N[C@@H](CC(C)C)C(=O)N[C@@H](Cc1c[nH]cn1)C(=O)N[C@@H](CCC(=O)O)C(=O)N[C@@H](CC(C)C)C(=O)N[C@@H](CCC(N)=O)C(=O)N[C@H](C(=O)N[C@@H](Cc1ccc(O)cc1)C(=O)N1CCC[C@H]1C(=O)N[C@@H](CCCNC(=N)N)C(=O)N[C@H](C(=O)N[C@@H](CCC(=O)O)C(=O)N[C@H](C(=O)NCC(=O)N[C@@H](CO)C(=O)NCC(=O)N[C@H](C(=O)N[C@@H](Cc1ccc(O)cc1)C(N)=O)[C@@H](C)O)[C@@H](C)O)[C@@H](C)O)[C@@H](C)O
B2: [N-terminal(C20 diacid-gGlu), des1, 4G, 9T, 15Q, 21Q, 23Y, 25P, 30S, 31G, 32T, 33Y]mimylin (peptide)
peptide: {C20 diacid-γGlu}-ASGLSTATLGRLSQELHELQTYPPTETGSGTY-NH2
SMILES: CC(C)C[C@H](NC(=O)CNC(=O)[C@H](CO)NC(=O)[C@H](C)NC(=O)CC[C@H](NC(=O)CCCCCCCCCCCCCCCCCCC(=O)O)C(=O)O)C(=O)N[C@@H](CO)C(=O)N[C@H](C(=O)N[C@@H](C)C(=O)N[C@H](C(=O)N[C@@H](CC(C)C)C(=O)NCC(=O)N[C@@H](CCCNC(=N)N)C(=O)N[C@@H](CC(C)C)C(=O)N[C@@H](CO)C(=O)N[C@@H](CCC(N)=O)C(=O)N[C@@H](CCC(=O)O)C(=O)N[C@@H](CC(C)C)C(=O)N[C@@H](Cc1c[nH]cn1)C(=O)N[C@@H](CCC(=O)O)C(=O)N[C@@H](CC(C)C)C(=O)N[C@@H](CCC(N)=O)C(=O)N[C@H](C(=O)N[C@@H](Cc1ccc(O)cc1)C(=O)N1CCC[C@H]1C(=O)N1CCC[C@H]1C(=O)N[C@H](C(=O)N[C@@H](CCC(=O)O)C(=O)N[C@H](C(=O)NCC(=O)N[C@@H](CO)C(=O)NCC(=O)N[C@H](C(=O)N[C@@H](Cc1ccc(O)cc1)C(N)=O)[C@@H](C)O)[C@@H](C)O)[C@@H](C)O)[C@@H](C)O)[C@@H](C)O)[C@@H](C)O
B3: [N-terminal(C20 diacid-gGlu), des1, 4Q, 9V, 15Q, 16R, 19R, 21Q, 23Y, 27Q, 30S, 31Q, 32T, 33Y]mimylin (peptide)
peptide: {C20 diacid-γGlu}-ASQLSTAVLGRLSQRLHRLQTYPRTQTGSQTY-NH2
SMILES: CC(C)C[C@H](NC(=O)[C@H](CCCNC(=N)N)NC(=O)CNC(=O)[C@H](CC(C)C)NC(=O)[C@@H](NC(=O)[C@H](C)NC(=O)[C@@H](NC(=O)[C@H](CO)NC(=O)[C@H](CC(C)C)NC(=O)[C@H](CCC(N)=O)NC(=O)[C@H](CO)NC(=O)[C@H](C)NC(=O)CC[C@H](NC(=O)CCCCCCCCCCCCCCCCCCC(=O)O)C(=O)O)[C@@H](C)O)C(C)C)C(=O)N[C@@H](CO)C(=O)N[C@@H](CCC(N)=O)C(=O)N[C@@H](CCCNC(=N)N)C(=O)N[C@@H](CC(C)C)C(=O)N[C@@H](Cc1c[nH]cn1)C(=O)N[C@@H](CCCNC(=N)N)C(=O)N[C@@H](CC(C)C)C(=O)N[C@@H](CCC(N)=O)C(=O)N[C@H](C(=O)N[C@@H](Cc1ccc(O)cc1)C(=O)N1CCC[C@H]1C(=O)N[C@@H](CCCNC(=N)N)C(=O)N[C@H](C(=O)N[C@@H](CCC(N)=O)C(=O)N[C@H](C(=O)NCC(=O)N[C@@H](CO)C(=O)N[C@@H](CCC(N)=O)C(=O)N[C@H](C(=O)N[C@@H](Cc1ccc(O)cc1)C(N)=O)[C@@H](C)O)[C@@H](C)O)[C@@H](C)O)[C@@H](C)O
B4: [N-terminal(C20 diacid-gGlu), des1, 4G, 8L, 9V, 15Q, 21Q, 23Y, 30S, 31Q, 32T, 33Y]mimylin (peptide)
peptide: {C20 diacid-γGlu}-ASGLSTLVLGRLSQELHELQTYPRTETGSQTY-NH2
SMILES: CC(C)C[C@H](NC(=O)CNC(=O)[C@H](CO)NC(=O)[C@H](C)NC(=O)CC[C@H](NC(=O)CCCCCCCCCCCCCCCCCCC(=O)O)C(=O)O)C(=O)N[C@@H](CO)C(=O)N[C@H](C(=O)N[C@@H](CC(C)C)C(=O)N[C@H](C(=O)N[C@@H](CC(C)C)C(=O)NCC(=O)N[C@@H](CCCNC(=N)N)C(=O)N[C@@H](CC(C)C)C(=O)N[C@@H](CO)C(=O)N[C@@H](CCC(N)=O)C(=O)N[C@@H](CCC(=O)O)C(=O)N[C@@H](CC(C)C)C(=O)N[C@@H](Cc1c[nH]cn1)C(=O)N[C@@H](CCC(=O)O)C(=O)N[C@@H](CC(C)C)C(=O)N[C@@H](CCC(N)=O)C(=O)N[C@H](C(=O)N[C@@H](Cc1ccc(O)cc1)C(=O)N1CCC[C@H]1C(=O)N[C@@H](CCCNC(=N)N)C(=O)N[C@H](C(=O)N[C@@H](CCC(=O)O)C(=O)N[C@H](C(=O)NCC(=O)N[C@@H](CO)C(=O)N[C@@H](CCC(N)=O)C(=O)N[C@H](C(=O)N[C@@H](Cc1ccc(O)cc1)C(N)=O)[C@@H](C)O)[C@@H](C)O)[C@@H](C)O)[C@@H](C)O)C(C)C)[C@@H](C)O
B5: [N-terminal(C20 diacid-gGlu), des1, 4G, 15Q, 21Q, 23Y, 25H, 30S, 31G, 32T, 33Y]mimylin (peptide)
peptide: {C20 diacid-γGlu}-ASGLSTAALGRLSQELHELQTYPHTETGSGTY-NH2
SMILES: CC(C)C[C@H](NC(=O)CNC(=O)[C@H](CO)NC(=O)[C@H](C)NC(=O)CC[C@H](NC(=O)CCCCCCCCCCCCCCCCCCC(=O)O)C(=O)O)C(=O)N[C@@H](CO)C(=O)N[C@H](C(=O)N[C@@H](C)C(=O)N[C@@H](C)C(=O)N[C@@H](CC(C)C)C(=O)NCC(=O)N[C@@H](CCCNC(=N)N)C(=O)N[C@@H](CC(C)C)C(=O)N[C@@H](CO)C(=O)N[C@@H](CCC(N)=O)C(=O)N[C@@H](CCC(=O)O)C(=O)N[C@@H](CC(C)C)C(=O)N[C@@H](Cc1c[nH]cn1)C(=O)N[C@@H](CCC(=O)O)C(=O)N[C@@H](CC(C)C)C(=O)N[C@@H](CCC(N)=O)C(=O)N[C@H](C(=O)N[C@@H](Cc1ccc(O)cc1)C(=O)N1CCC[C@H]1C(=O)N[C@@H](Cc1c[nH]cn1)C(=O)N[C@H](C(=O)N[C@@H](CCC(=O)O)C(=O)N[C@H](C(=O)NCC(=O)N[C@@H](CO)C(=O)NCC(=O)N[C@H](C(=O)N[C@@H](Cc1ccc(O)cc1)C(N)=O)[C@@H](C)O)[C@@H](C)O)[C@@H](C)O)[C@@H](C)O)[C@@H](C)O

Target: rat amylin receptor (rat calcitonin receptor with rat RAMP 3) (rat) (UniProt P32214)
Assay: SPA competition vs 125I-rat amylin, membranes with rat CTR + rat RAMP3 (Assay VI)

Binder | IC50
B1 | 0.146 nM
B2 | 0.098 nM
B3 | 1.16 nM
B4 | 0.091 nM
B5 | 0.026 nM

Target: T1, human amylin receptor (human calcitonin receptor + human RAMP3) (human)
Assay: whole-cell competition vs 125I-rat amylin (Assay Va)

Binder | IC50
B1 | 0.278 nM
B2 | 0.116 nM
B3 | 3.7 nM
B4 | 1.48 nM
B5 | 0.142 nM

Target: rat calcitonin receptor (rat) (UniProt P32214)
Assay: SPA competition vs 125I-calcitonin, membranes with rat CTR (Assay VIII)

Binder | IC50
B1 | 0.021 nM
B2 | 0.028 nM
B3 | 0.069 nM
B4 | 0.031 nM
B5 | 0.031 nM
